PMC3629905 (Biochemistry, 2013)

Columns and labels:
[1] = target: GKL (quorum-quenching lactonase from Geobacillus kaustophilus) (Geobacillus kaustophilus, UniProt Q5KZU5, E101G/R230C/D266N)
[2] = system: CCCCCC(=O)CC(=O)N[C@H]1CCOC1=O; assay: purified protein; conditions: pH 8.3; 37.0 °C
[3] = system: CCCC(=O)CC(=O)N[C@H]1CCOC1=O; assay: purified protein; conditions: pH 8.3; 37.0 °C

Row | Compound | X-ray crystal structure, 2.2 Å [1] | Km [2] | kcat/Km [2] | Km [3] | kcat/Km [3]
1 | CCCC(=O)NC1CCOC1=O (racemic) [C4-HSL, N-butyryl-L-homoserine lactone] | its catalytically inactive variant E101G/R230C/D266N with the quorum-molecule C4-HSL bound in the active site |  |  |  | 
2 | GKL (quorum-quenching lactonase from Geobacillus kaustophilus) (Geobacillus kaustophilus HTA426; E101G/R230C) |  | 3.0 ± 0.4 mM | 700 M⁻¹ s⁻¹ | 22 ± 12 mM | 50 M⁻¹ s⁻¹
3 | GKL (quorum-quenching lactonase from Geobacillus kaustophilus) (Geobacillus kaustophilus HTA426; E101N) |  | 4.0 ± 3.2 mM | 53 M⁻¹ s⁻¹ |  | 
4 | GKL (quorum-quenching lactonase from Geobacillus kaustophilus) (Geobacillus kaustophilus HTA426) |  | 5.5 ± 2.1 mM | 38 M⁻¹ s⁻¹ |  | 
